From the supplement of paper PMC7125110
± gives the standard error. This sample holds only a part of the variants without activity.

B1: glmS ribozyme (parent)
chain: AUAAAAGCGCCAGAACUACAGAAAUGUAGUUGACGAGGAGGAGGUUUAUCGAAUUUUCGGCGGAUGCCUCCAAA

Legend:
Settings in all cases: with glucosamine-6-phosphate
[1] = variants of: B1; test: self-cleavage kobs at 40 uM GlcN6P; higher = faster cleavage; RNA array
Summary of the method: (§1)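 Barcoded ribozyme variants, transcribed in situ by E. coli RNA polymerase on sequenced MiSeq chips, were followed via a hybridised Cy3 probe at 37 °C. Glucosamine-6-phosphate ranged from 40 μM to 10 mM in HEPES/KCl/Mg(OAc)2 buffer. kobs came from decay fits to per-tile medians, and kcat and KM from weighted Michaelis–Menten fits.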

[2] = variants of: B1; test: self-cleavage kobs at 160 uM GlcN6P; higher = faster cleavage; RNA array
Summary of the method: as §1

[3] = variants of: B1; test: self-cleavage kobs at 640 uM GlcN6P; higher = faster cleavage; RNA array
Summary of the method: as §1

[4] = variants of: B1; test: self-cleavage kobs at 2500 uM GlcN6P; higher = faster cleavage; RNA array
Summary of the method: as §1

[5] = variants of: B1; test: self-cleavage kobs at 10000 uM GlcN6P; higher = faster cleavage; RNA array
Summary of the method: as §1

Variant	self-cleavage kobs at 40 uM GlcN6P [1] [s⁻¹]	self-cleavage kobs at 160 uM GlcN6P [2] [s⁻¹]	self-cleavage kobs at 640 uM GlcN6P [3] [s⁻¹]	self-cleavage kobs at 2500 uM GlcN6P [4] [s⁻¹]	self-cleavage kobs at 10000 uM GlcN6P [5] [s⁻¹]
AUAAAAGGGCCAUAACUACAGAAAUGUAGUUGACGAGGAGGAGGUUUAUCGAAUUUUCGGCGGAUGCCUCCAAA [C8G G13U]	< 1e-05	< 1e-05	< 1e-05	< 1e-05	< 1e-05
AUAAAAGGGCCAGAACUACAGAAAUGUAGUCGACCAGGAGGAGGUUUAUCGAAUUUUCGGCGGAUGCCUCCAAA [C8G U31C G35C]	< 1e-05				< 1e-05
AUAAAACCGCCAGAACUACAGAAAUGUAGUUGACUAGGAGGAGGUUUAUCGAAUUUUCGGCGGAUGCCUCCAAA [G7C G35U]	< 1e-05	< 1e-05		< 1e-05	
AUAAAAGCGCCAGACCUACAGAAAUGUAGUUGACGAGGAGGAGGUUGAUCAAAUUCUCGGCGGAUGCCUCCAAA [A15C U47G G51A U56C]	< 1e-05			< 1e-05	< 1e-05
AUAAAAGCCCCAGAACUACAGAAAUGUAGUUGACGAGGAGGAGGUUUAUCGAAUUUACGGCGGAUGCCUCCAAA [G9C U57A]	< 1e-05		< 1e-05	< 1e-05	
AUAAAGGCGCCAGAACUACAGAAAUGUACUUGACGAGGAGGAGGGUUAUCGAAUUUUCGGCGGAUGCCUGCAAA [A6G G29C U45G C70G]	< 1e-05				
AUAAAAGCGCCAGAACUACAGAAAUGUAGAUGGCGAGGAGGAGGUUUCUCGAAUUUUCGGCGGAUGACUCCAAA [U30A A33G A48C C67A]	< 1e-05				< 1e-05
AUAAAAGCGCCAGAACUACAGAAAUGUAGUUGACGAGGAGGAGAUUUAUCGAAUUUUCGGGGGAUGCCUCCAAA [G44A C61G]	< 1e-05	< 1e-05		< 1e-05	< 1e-05
AUAAAAGCGCCAGAACUACAGAAAUGUAGUUGACAAGGAGGAGGUUUAUCGAAUUUUCGGCGGAUGCCUCUAAA [G35A C71U]	< 1e-05	< 1e-05	< 1e-05	< 1e-05	< 1e-05
AUAAAAGCGCCAGCACUACAGAAAUGUAGUUGACGAGGAGGAGGGUUAUCGCAUUUUCGGCGAAUGCCUCCAAA [A14C U45G A52C G63A]	< 1e-05				
AUAAAAGCGCGAGAACUACAGAAAUGUAGUUGACGAGGAGGAGGUUUAUCGAAUUUUUUGCGGAUGCCUCCAAA [C11G C58U G59U]	< 1e-05				< 1e-05
AUAAAAGCGCCCGAACUACAGAAAUGUAGUUGACGAGGAGGAGGUUUAUCGAACUUUCGGCGGAUGCCUCCAAA [A12C U54C]	0.00107 ± 0.00014	0.00117 ± 0.00027	0.0063 ± 0.0021	0.0137 ± 0.0032	0.0203 ± 0.0043
AUAAAGGCGCCAGAACUACAGAAAUGUAGUUGACGAGGAGGAGGUUUAUCGAAUUUUCGACGGAGGCCUCCAAA [A6G G60A U65G]	< 1e-05				< 1e-05
